Experimental data reported in the supplement of paper PMC9170038.

Test system: K4 kissing-loop RNA reporter
Assay: apparent KD of K4 kissing-loop reporter; higher = weaker reporter binding
Conditions: Eterna round: R107
Procedure: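 RNA-MaP round R107: designed RNA switches with theophylline, tryptophan, arginine or FMN aptamers are transcribed on-chip within common flanks. They are titrated with a labelled K4 kissing-loop RNA reporter in RNA-MaP buffer (100 mM Tris pH 7.5, 80 mM KCl, 4 mM MgCl2), without ligand or with the indicated ligand. Median apparent KD per design.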

[1] = input ligand: theophylline 20 uM
[2] = input ligand: tryptophan 2.4 mM
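Note: bound reporter read as fluorescence of individual clusters on recovered sequencing chips by microscopy, with normalized cluster intensities fitted with a binding model.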

Sequence: UGAUAGGACAGAAGGAGCGGAAGUGAUGUUUCCAAAAGGGUAAGGUGUCAAAAGACACCCUUCCAGGUAGGUCGCUGUCCUAUCU
- apparent KD of K4 kissing-loop reporter (input ligand: FMN 200 uM): 93.9 nM
- apparent KD of K4 kissing-loop reporter (input ligand: arginine 13.2 mM): 109 nM
- apparent KD of K4 kissing-loop reporter (input ligand: none): 99 nM
- apparent KD of K4 kissing-loop reporter [1]: 111 nM
- apparent KD of K4 kissing-loop reporter [2]: 86.3 nM

Sequence: GUAUGUGGAAACACGUACUUAUAUCCUAAGCAGGAUAUGCGGAAACGCAGAAGGGCUACCAACGAGUUUACCCAGUGAUGUUGGG [Ex FMN A 14]
- apparent KD of K4 kissing-loop reporter (input ligand: FMN 200 uM): 275 nM
- apparent KD of K4 kissing-loop reporter (input ligand: arginine 13.2 mM): 260 nM
- apparent KD of K4 kissing-loop reporter (input ligand: none): 320 nM
- apparent KD of K4 kissing-loop reporter [1]: 288 nM
- apparent KD of K4 kissing-loop reporter [2]: 296 nM

Sequence: CGAAGAUUCCAUGAUACCAGCCUCGGCCCAUAGAGUGAUGUUCUAGUCGGGUCCGUUCGCGGCCCUUGGCAGCAUUUCACCACGA [theeternabot_sameState_KL_Theo_B_44]
- apparent KD of K4 kissing-loop reporter (input ligand: FMN 200 uM): 197 nM
- apparent KD of K4 kissing-loop reporter (input ligand: arginine 13.2 mM): 172 nM
- apparent KD of K4 kissing-loop reporter (input ligand: none): 178 nM
- apparent KD of K4 kissing-loop reporter [1]: 216 nM
- apparent KD of K4 kissing-loop reporter [2]: 159 nM

Sequence: GGUGUUGUUUGUGCUGUUUUCCUCGUUUCUCGAGGACCGGUACGGCCGCCACUCGAGUGAUGUUUGGGUAGCGAUCUUUGUUAGU [Bdazzled - #5 Exc. Tryptophan A]
- apparent KD of K4 kissing-loop reporter (input ligand: FMN 200 uM): 223 nM
- apparent KD of K4 kissing-loop reporter (input ligand: arginine 13.2 mM): 142 nM
- apparent KD of K4 kissing-loop reporter (input ligand: none): 177 nM
- apparent KD of K4 kissing-loop reporter [1]: 177 nM
- apparent KD of K4 kissing-loop reporter [2]: 281 nM

Sequence: UCCUGCACGGUCGAUACCAGCCUAUGCAGUGAUGUUGUAAGGUUGUCACUUUAGUACGAAGGCCCUUGGCAGCGAUGAUGUAACA [theeternabot_exclusion_KL_Theo_B_41]
- apparent KD of K4 kissing-loop reporter (input ligand: FMN 200 uM): 601 nM
- apparent KD of K4 kissing-loop reporter (input ligand: arginine 13.2 mM): 470 nM
- apparent KD of K4 kissing-loop reporter (input ligand: none): 604 nM
- apparent KD of K4 kissing-loop reporter [1]: 504 nM
- apparent KD of K4 kissing-loop reporter [2]: 464 nM

Sequence: UUACUACCCAGUGAUGUUGGGUAGCGGCGGCGAGGACCGGUACGGCCGCCACUCGGCGCACGGGAGUGAUGUUCCUAAGAAUAAA [Same State Tryptophan A GF 9]
- apparent KD of K4 kissing-loop reporter (input ligand: FMN 200 uM): 295 nM
- apparent KD of K4 kissing-loop reporter (input ligand: arginine 13.2 mM): 306 nM
- apparent KD of K4 kissing-loop reporter (input ligand: none): 335 nM
- apparent KD of K4 kissing-loop reporter [1]: 350 nM
- apparent KD of K4 kissing-loop reporter [2]: 140 nM

Sequence: GACAGUCGGUGUUAAUGACAGUUACGCGAUACCAGCGAAACAGUACGCCCUUGGCAGCGCAGUGAUGUUGCGCGCCUAGUGUGGU [Esbiceve]
- apparent KD of K4 kissing-loop reporter (input ligand: FMN 200 uM): 99.5 nM
- apparent KD of K4 kissing-loop reporter (input ligand: arginine 13.2 mM): 94.8 nM
- apparent KD of K4 kissing-loop reporter (input ligand: none): 101 nM
- apparent KD of K4 kissing-loop reporter [1]: 92.5 nM
- apparent KD of K4 kissing-loop reporter [2]: 97.2 nM

Sequence: AGGUGGGACGUAGGAUAUCCCUAAUGAUUUACUUCCUGGUUGCUACGCUUCCAGUGAUGUUGGAAGGGAGAAGGACGGGCGAGUU [Riatbive]
- apparent KD of K4 kissing-loop reporter (input ligand: FMN 200 uM): 365 nM
- apparent KD of K4 kissing-loop reporter (input ligand: arginine 13.2 mM): 217 nM
- apparent KD of K4 kissing-loop reporter (input ligand: none): 213 nM
- apparent KD of K4 kissing-loop reporter [1]: 217 nM
- apparent KD of K4 kissing-loop reporter [2]: 222 nM

Sequence: CCUAUCUCAUACGAUACCAGUCAAUGAUAUUUUAUCAAUGCCAUCACCGAGUGAUGUUCGGACCCUUGGCAGCGUAUGGGAUAGG [whbob_Ex_Theo_B_sa101]
- apparent KD of K4 kissing-loop reporter (input ligand: FMN 200 uM): 266 nM
- apparent KD of K4 kissing-loop reporter (input ligand: arginine 13.2 mM): 212 nM
- apparent KD of K4 kissing-loop reporter (input ligand: none): 253 nM
- apparent KD of K4 kissing-loop reporter [1]: 417 nM
- apparent KD of K4 kissing-loop reporter [2]: 238 nM

Sequence: AGCAUUUUCAGAAGGAGCGUGAAUUAUUCAUAAUUAUAUUAUACGAGUGAUGUUCGUAUUUCACAGGUAGGUCGCUGAUAUAGCA [JR_SSArginiB_Sub002]
- apparent KD of K4 kissing-loop reporter (input ligand: FMN 200 uM): 51.4 nM
- apparent KD of K4 kissing-loop reporter (input ligand: arginine 13.2 mM): 78.3 nM
- apparent KD of K4 kissing-loop reporter (input ligand: none): 50.1 nM
- apparent KD of K4 kissing-loop reporter [1]: 81.6 nM
- apparent KD of K4 kissing-loop reporter [2]: 46.6 nM

Sequence: AAACAUCACUGGGAGUGAUGUUCUCAGUGACGAGGACCGGUACGGCCGCCACUCGCGAGAGAUAUAGAUGAGUAAUGACAUCAUU [Excl Tryptophan A V3]
- apparent KD of K4 kissing-loop reporter (input ligand: FMN 200 uM): 277 nM
- apparent KD of K4 kissing-loop reporter (input ligand: arginine 13.2 mM): 232 nM
- apparent KD of K4 kissing-loop reporter (input ligand: none): 286 nM
- apparent KD of K4 kissing-loop reporter [1]: 274 nM
- apparent KD of K4 kissing-loop reporter [2]: 304 nM

Sequence: UAUUUAAAUAAAAUAAAAUAAAUUGCUGAUACCAGAGCCAAUUGGCUCCCUUGGCAGCGGAUCGAGUGAUGUUCGUAAAAUUUAU [AK2 SS Theophylline A]
- apparent KD of K4 kissing-loop reporter (input ligand: FMN 200 uM): 28.5 nM
- apparent KD of K4 kissing-loop reporter (input ligand: arginine 13.2 mM): 65.4 nM
- apparent KD of K4 kissing-loop reporter (input ligand: none): 29.6 nM
- apparent KD of K4 kissing-loop reporter [1]: 61.5 nM
- apparent KD of K4 kissing-loop reporter [2]: 30.3 nM

Sequence: UCGAUAGCCAGCGAUACCAGCCCAGUGAUGUUGGGCACAUGGUUGCGGGAAAUCCUAUUGGGCCCUUGGCAGCGCUUGCAUGGGU [Anbixeza]
- apparent KD of K4 kissing-loop reporter (input ligand: FMN 200 uM): 127 nM
- apparent KD of K4 kissing-loop reporter (input ligand: arginine 13.2 mM): 118 nM
- apparent KD of K4 kissing-loop reporter (input ligand: none): 119 nM
- apparent KD of K4 kissing-loop reporter [1]: 107 nM
- apparent KD of K4 kissing-loop reporter [2]: 110 nM

Sequence: AUGCGUGAUGCUCAAAGAGUAUCACCCGAUACCAGUAUGGAAACAUACCCUUGGCAGCGGGUAACUGCCCAGUGAUGUUGGACGC [Theophylline A K4 10]
- apparent KD of K4 kissing-loop reporter (input ligand: FMN 200 uM): 286 nM
- apparent KD of K4 kissing-loop reporter (input ligand: arginine 13.2 mM): 160 nM
- apparent KD of K4 kissing-loop reporter (input ligand: none): 242 nM
- apparent KD of K4 kissing-loop reporter [1]: 288 nM
- apparent KD of K4 kissing-loop reporter [2]: 234 nM

Sequence: CGAGUGAUGUUCGUUUUUUAAUUUUUUUGACAGGAUAUGCGGAAACGCAGAAGGGUCACCUUUGAGUUAAAAGAAUUUAUUUUUU [Ex FMN A 17]
- apparent KD of K4 kissing-loop reporter (input ligand: FMN 200 uM): 321 nM
- apparent KD of K4 kissing-loop reporter (input ligand: arginine 13.2 mM): 236 nM
- apparent KD of K4 kissing-loop reporter (input ligand: none): 295 nM
- apparent KD of K4 kissing-loop reporter [1]: 298 nM
- apparent KD of K4 kissing-loop reporter [2]: 199 nM

Sequence: AACCACUCGUUACAUCACUAUCGAGUGGAACGAGGACCGGUACGGCCGCCACUCGAUAAGAUGCAGUGAUGUUGCAUCUAAGAAU [KL-SSTryp-A (BrourdMod)5 #dotplot2 strengthened]
- apparent KD of K4 kissing-loop reporter (input ligand: FMN 200 uM): 208 nM
- apparent KD of K4 kissing-loop reporter (input ligand: arginine 13.2 mM): 168 nM
- apparent KD of K4 kissing-loop reporter (input ligand: none): 183 nM
- apparent KD of K4 kissing-loop reporter [1]: 192 nM
- apparent KD of K4 kissing-loop reporter [2]: 141 nM

Sequence: UGUCAUUGGUCGGCCGCCACUAUAUAAAAGAGUGAUGUUCUAAAGACGGAUCGAAAGAUCUGUCAUAGGACCGGGACCGAUGACU [TrypBS 20 #SwitchBubble #StaticStem]
- apparent KD of K4 kissing-loop reporter (input ligand: FMN 200 uM): 293 nM
- apparent KD of K4 kissing-loop reporter (input ligand: arginine 13.2 mM): 204 nM
- apparent KD of K4 kissing-loop reporter (input ligand: none): 308 nM
- apparent KD of K4 kissing-loop reporter [1]: 294 nM
- apparent KD of K4 kissing-loop reporter [2]: 1140 nM
